Test results taken from patent US20240066131A1 (Protagonist Therapeutics, Inc., priority 2020, published 2024).
Starred links: 1 amine or outer side, 2 acyl side, 3 side chain; linkers in the order of their positions; H or OH if unused. Non-standard residues stand in square brackets, D forms with d. Groups on a side chain read outwards from the residue. Primed or numbered codes have the meaning given here. *: point of attachment. Tet2 = (S)-2-amino-4-(1H-tetrazol-5-yl)butanoic acid, O=C([C@H](CCc1nn[nH]n1)N[*:1])[*:2]; ButanoicP = (R)-4-(pyrrolidin-2-yl)butanoic acid, O=C(CCC[C@@H]1CCCN1[*:1])[*:2]; Ala(1H-tetrazol-5-yl) = N[C@@H](Cc1nnn[nH]1)C(=O)O; Dip = N[C@H](C(=O)O)C(c1ccccc1)c1ccccc1; His(τ-Me) = Cn1cnc(C[C@H](N)C(=O)O)c1; Stearoyl = CCCCCCCCCCCCCCCCCC(=O)*; Palmitoyl = CCCCCCCCCCCCCCCC(=O)*; Myristoyl = CCCCCCCCCCCCCC(=O)*; β3hF = N[C@H](CC(=O)O)Cc1ccccc1; Isovaleryl = CC(C)CC(=O)*; hIle′ = not defined here; AEEA = NCCOCCOCC(=O)O; Ahx = NCCCCCC(=O)O; βAla = NCCC(=O)O

T1: human ferroportin (SLC40A1) fused in frame with GFP, stably expressed in HEK293 cells (human, UniProt Q9NP59 1-571)
T1 sequence (looked up): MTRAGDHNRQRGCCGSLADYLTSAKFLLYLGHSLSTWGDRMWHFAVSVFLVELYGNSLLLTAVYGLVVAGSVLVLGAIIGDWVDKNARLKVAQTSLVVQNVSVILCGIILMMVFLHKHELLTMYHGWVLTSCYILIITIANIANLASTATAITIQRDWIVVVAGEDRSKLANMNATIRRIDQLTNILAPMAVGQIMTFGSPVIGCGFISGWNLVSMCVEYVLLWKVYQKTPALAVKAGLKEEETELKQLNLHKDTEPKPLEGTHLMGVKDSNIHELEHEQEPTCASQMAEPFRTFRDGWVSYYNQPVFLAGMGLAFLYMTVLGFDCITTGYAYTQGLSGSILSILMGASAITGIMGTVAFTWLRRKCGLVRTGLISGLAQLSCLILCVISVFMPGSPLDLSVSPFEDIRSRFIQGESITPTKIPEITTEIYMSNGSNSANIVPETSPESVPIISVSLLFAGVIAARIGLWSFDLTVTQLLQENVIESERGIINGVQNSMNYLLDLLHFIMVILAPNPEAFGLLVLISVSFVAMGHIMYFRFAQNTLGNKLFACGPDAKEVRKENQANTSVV


target: T1, human ferroportin (SLC40A1) fused in …; assay: cell-based or functional assay

Row | Binder | FPN EC50 [nM]
1 | Isovaleryl-ETH[Dip]PAIK([Ahx-Myristoyl])[β3hF]-NH2 [Isovaleric Acid-E-T-H-[Dpa]-P-A-I-[Lys(Ahx_C14)]-[bhPhe]-NH2] | 92.4
2 | Isovaleryl-ETH[Dip]PAIK([Ahx-Stearoyl])[β3hF]-NH2 [Isovaleric Acid-E-T-H-[Dpa]-P-A-I-[Lys(Ahx_C18)]-[bhPhe]-NH2] | 82.2
3 | Isovaleryl-ETH[Dip]PAIK([βAla-Palmitoyl])[β3hF]-NH2 [Isovaleric Acid-E-T-H-[Dpa]-P-A-I-[Lys(bAla_Palm)]-[bhPhe]-NH2] | 62.9
4 | Isovaleryl-ETH[Dip]PIIK([Ahx-Palmitoyl])[β3hF]-NH2 [Isovaleric Acid-E-T-H-[Dpa]-P-I-I-[Lys(Ahx_Palm)]-[bhPhe]-NH2] | 232
5 | Isovaleryl-ETH[Dip]P[hIle′]IK([Ahx-Palmitoyl])[β3hF]-NH2 [Isovaleric Acid-E-T-H-[Dpa]-P-[hIle]-I-[Lys(Ahx_Palm)]-[bhPhe]-NH2] | 228
6 | Isovaleryl-ETH[Dip]PAIK([AEEA-AEEA-Ahx-Palmitoyl])[β3hF]-NH2 (SMILES CCCCCCCCCCCCCCCC(=O)NCCCCCC(=O)NCCOCCOCC(=O)NCCOCCOCC(=O)NCCCC[C@H](NC(=O)[C@@H](NC(=O)[C@H](C)NC(=O)[C@@H]1CCCN1C(=O)[C@@H](NC(=O)[C@H](Cc1c[nH]cn1)NC(=O)[C@@H](NC(=O)[C@H](CCC(=O)O)NC(=O)CC(C)C)[C@@H](C)O)C(c1ccccc1)c1ccccc1)[C@@H](C)CC)C(=O)N[C@H](CC(N)=O)Cc1ccccc1) [Isovaleric Acid-E-T-H-[Dpa]-P-A-I-[Lys(1PEG2_1PEG2_Ahx_Palm)]-[bhPhe]-NH2] | 63.5
7 | Isovaleryl-ETH[Dip]PAIK([AEEA-AEEA-Palmitoyl])[β3hF]-NH2 [Isovaleric Acid-E-T-H-[Dpa]-P-A-I-[Lys(1PEG2_1PEG2_Palm)]-[bhPhe]-NH2] | 73.7
8 | Isovaleryl-ETH[Dip]PAK([Ahx-Palmitoyl])-NH2 (SMILES CCCCCCCCCCCCCCCC(=O)NCCCCCC(=O)NCCCC[C@H](NC(=O)[C@H](C)NC(=O)[C@@H]1CCCN1C(=O)[C@@H](NC(=O)[C@H](Cc1c[nH]cn1)NC(=O)[C@@H](NC(=O)[C@H](CCC(=O)O)NC(=O)CC(C)C)[C@@H](C)O)C(c1ccccc1)c1ccccc1)C(N)=O) [Isovaleric Acid-E-T-H-[Dpa]-P-A-[Lys(Ahx_Palm)]-NH2] | 193
9 | Isovaleryl-ETH[Dip]PAIK([Ahx-C10])[β3hF]-NH2 [Isovaleric Acid-E-T-H-[Dpa]-P-A-I-[Lys(Ahx_C10)]-[bhPhe]-NH2] | 123
10 | Isovaleryl-ETH[Dip]PLIK([Ahx-Palmitoyl])[β3hF]-NH2 [Isovaleric Acid-E-T-H-[Dpa]-P-L-I-[Lys(Ahx_Palm)]-[bhPhe]-NH2] | 372
11 | Isovaleryl-ETH[Dip]PAIK([Ahx-C22])[β3hF]-NH2 [Isovaleric Acid-E-T-H-[Dpa]-P-A-I-[Lys(Ahx_C22)]-[bhPhe]-NH2] | 1330

The next lines start with the values.

Row | FPN EC50 [nM] | Binder
12 | 86.8 | Isovaleryl-[Ala(1H-tetrazol-5-yl)]TH[Dip]PIIK([Ahx-Palmitoyl])[β3hF]-NH2 (SMILES CCCCCCCCCCCCCCCC(=O)NCCCCCC(=O)NCCCC[C@H](NC(=O)[C@@H](NC(=O)[C@@H](NC(=O)[C@@H]1CCCN1C(=O)[C@@H](NC(=O)[C@H](Cc1c[nH]cn1)NC(=O)[C@@H](NC(=O)[C@H](Cc1nnn[nH]1)NC(=O)CC(C)C)[C@@H](C)O)C(c1ccccc1)c1ccccc1)[C@@H](C)CC)[C@@H](C)CC)C(=O)N[C@H](CC(N)=O)Cc1ccccc1) [Isovaleric Acid-[Tet1]-T-H-[Dpa]-P-I-I-[Lys(Ahx_Palm)]-[bhPhe]-NH2]
13 | 101 | Isovaleryl-[Tet2]T[His(τ-Me)][Dip]PIIK([Ahx-Palmitoyl])[β3hF]-NH2 (SMILES CCCCCCCCCCCCCCCC(=O)NCCCCCC(=O)NCCCC[C@H](NC(=O)[C@@H](NC(=O)[C@@H](NC(=O)[C@@H]1CCCN1C(=O)[C@@H](NC(=O)[C@H](Cc1cn(C)cn1)NC(=O)[C@@H](NC(=O)[C@H](CCc1nn[nH]n1)NC(=O)CC(C)C)[C@@H](C)O)C(c1ccccc1)c1ccccc1)[C@@H](C)CC)[C@@H](C)CC)C(=O)N[C@H](CC(N)=O)Cc1ccccc1) [Isovaleric Acid-[Tet2]-T-[His_1Me]-[Dpa]-P-I-I-[Lys(Ahx_Palm)]-[bhPhe]-NH2]
14 | 214 | Isovaleryl-[Ala(1H-tetrazol-5-yl)]T[His(τ-Me)][Dip][ButanoicP]K([Ahx-Palmitoyl])-NH2 (SMILES CCCCCCCCCCCCCCCC(=O)NCCCCCC(=O)NCCCC[C@H](NC(=O)CCC[C@@H]1CCCN1C(=O)[C@@H](NC(=O)[C@H](Cc1cn(C)cn1)NC(=O)[C@@H](NC(=O)[C@H](Cc1nnn[nH]1)NC(=O)CC(C)C)[C@@H](C)O)C(c1ccccc1)c1ccccc1)C(N)=O) [Isovaleric Acid-[Tet1]-T-[His_1Me]-[Dpa]-[ButanoicP]-[Lys(Ahx_Palm)]-NH2]
15 | 59.7 | Isovaleryl-ET[His(τ-Me)][Dip]PIIK([Ahx-Palmitoyl])[β3hF]-NH2 [Isovaleric Acid-E-T-[His_1Me]-[Dpa]-P-I-I-[Lys(Ahx_Palm)]-[bhPhe]-NH2]
16 | 33.4 | Isovaleryl-[Ala(1H-tetrazol-5-yl)]T[His(τ-Me)][Dip]PIIK([Ahx-Palmitoyl])[β3hF]-NH2 [Isovaleric Acid-[Tet1]-T-[His_1Me]-[Dpa]-P-I-I-[Lys(Ahx_Palm)]-[bhPhe]-NH2]
17 | 30.2 | Isovaleryl-[Ala(1H-tetrazol-5-yl)]T[His(τ-Me)][Dip]PAIK([Ahx-Palmitoyl])-NH2 (SMILES CCCCCCCCCCCCCCCC(=O)NCCCCCC(=O)NCCCC[C@H](NC(=O)[C@@H](NC(=O)[C@H](C)NC(=O)[C@@H]1CCCN1C(=O)[C@@H](NC(=O)[C@H](Cc1cn(C)cn1)NC(=O)[C@@H](NC(=O)[C@H](Cc1nnn[nH]1)NC(=O)CC(C)C)[C@@H](C)O)C(c1ccccc1)c1ccccc1)[C@@H](C)CC)C(N)=O) [Isovaleric Acid-[Tet1]-T-[His_1Me]-[Dpa]-P-A-I-[Lys(Ahx_Palm)]-NH2]
18 | 73 | Isovaleryl-ET[His(τ-Me)][Dip]PAIK([Ahx-Palmitoyl])-NH2 [Isovaleric Acid-E-T-[His_1Me]-[Dpa]-P-A-I-[Lys(Ahx_Palm)]-NH2]
19 | 376 | Isovaleryl-[Tet2]TH[Dip]PIIK([Ahx-Palmitoyl])[β3hF]-NH2 (SMILES CCCCCCCCCCCCCCCC(=O)NCCCCCC(=O)NCCCC[C@H](NC(=O)[C@@H](NC(=O)[C@@H](NC(=O)[C@@H]1CCCN1C(=O)[C@@H](NC(=O)[C@H](Cc1c[nH]cn1)NC(=O)[C@@H](NC(=O)[C@H](CCc1nn[nH]n1)NC(=O)CC(C)C)[C@@H](C)O)C(c1ccccc1)c1ccccc1)[C@@H](C)CC)[C@@H](C)CC)C(=O)N[C@H](CC(N)=O)Cc1ccccc1) [Isovaleric Acid-[Tet2]-T-H-[Dpa]-P-I-I-[Lys(Ahx_Palm)]-[bhPhe]-NH2]
20 | 44.1 | Isovaleryl-[Ala(1H-tetrazol-5-yl)]TH[Dip]PAIK([Ahx-Palmitoyl])-NH2 (SMILES CCCCCCCCCCCCCCCC(=O)NCCCCCC(=O)NCCCC[C@H](NC(=O)[C@@H](NC(=O)[C@H](C)NC(=O)[C@@H]1CCCN1C(=O)[C@@H](NC(=O)[C@H](Cc1c[nH]cn1)NC(=O)[C@@H](NC(=O)[C@H](Cc1nnn[nH]1)NC(=O)CC(C)C)[C@@H](C)O)C(c1ccccc1)c1ccccc1)[C@@H](C)CC)C(N)=O) [Isovaleric Acid-[Tet1]-T-H-[Dpa]-P-A-I-[Lys(Ahx_Palm)]-NH2]
